In paper PMC7055321:
Values joined by “and” are separate entries in the source; they are usually repeats but may differ in a detail not shown here. Equal entries are not always repeated.

Target: ACE (angiotensin-I converting enzyme) from rabbit lung (rabbit) (UniProt P12822)
Sequence of UniProt P12822 (P12822 34-1310): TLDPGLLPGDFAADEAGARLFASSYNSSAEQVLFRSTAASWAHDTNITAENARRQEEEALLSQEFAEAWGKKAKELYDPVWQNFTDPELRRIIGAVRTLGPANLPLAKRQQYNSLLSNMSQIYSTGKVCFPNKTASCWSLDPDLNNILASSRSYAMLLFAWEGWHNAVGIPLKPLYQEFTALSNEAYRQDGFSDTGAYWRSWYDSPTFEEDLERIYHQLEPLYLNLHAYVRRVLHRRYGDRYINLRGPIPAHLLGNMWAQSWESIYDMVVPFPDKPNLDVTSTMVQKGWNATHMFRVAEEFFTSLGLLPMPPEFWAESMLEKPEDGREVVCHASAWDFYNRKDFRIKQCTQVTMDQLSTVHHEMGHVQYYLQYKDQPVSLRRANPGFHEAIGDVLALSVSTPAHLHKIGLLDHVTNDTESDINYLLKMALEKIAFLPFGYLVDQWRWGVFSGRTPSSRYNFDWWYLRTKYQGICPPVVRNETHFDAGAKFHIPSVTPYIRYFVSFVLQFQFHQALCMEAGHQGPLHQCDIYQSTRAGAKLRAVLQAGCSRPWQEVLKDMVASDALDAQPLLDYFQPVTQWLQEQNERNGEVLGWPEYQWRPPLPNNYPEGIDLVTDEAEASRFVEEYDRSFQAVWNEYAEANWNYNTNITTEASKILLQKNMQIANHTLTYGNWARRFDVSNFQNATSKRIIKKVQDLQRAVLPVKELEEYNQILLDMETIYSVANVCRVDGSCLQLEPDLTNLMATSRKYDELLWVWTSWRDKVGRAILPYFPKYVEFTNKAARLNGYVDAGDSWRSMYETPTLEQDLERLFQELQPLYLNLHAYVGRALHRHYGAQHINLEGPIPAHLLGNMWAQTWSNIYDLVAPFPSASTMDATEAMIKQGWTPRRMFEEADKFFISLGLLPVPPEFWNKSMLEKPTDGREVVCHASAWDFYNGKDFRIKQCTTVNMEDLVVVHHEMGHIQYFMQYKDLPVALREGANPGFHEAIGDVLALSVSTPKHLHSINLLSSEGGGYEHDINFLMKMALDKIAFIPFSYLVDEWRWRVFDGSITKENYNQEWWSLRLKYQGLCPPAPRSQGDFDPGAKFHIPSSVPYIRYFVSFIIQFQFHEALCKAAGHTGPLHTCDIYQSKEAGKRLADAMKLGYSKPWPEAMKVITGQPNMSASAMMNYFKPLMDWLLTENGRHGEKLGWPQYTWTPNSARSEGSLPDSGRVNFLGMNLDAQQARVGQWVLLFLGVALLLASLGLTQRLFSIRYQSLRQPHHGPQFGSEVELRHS

Substance: IER tripeptide
- ACE inhibition (FAPGG hydrolysis, absorbance at 340 nm), IC50: 0.06 mg/ml and 0.144 mM
